Assay: yeast display, Sf9 membrane polyspecificity reagent, FACS + sequencing; frameworks hold sequencing errors
How it was run: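 Using colony PCR, genes from sorted yeast display clones were amplified, then sequenced on MiSeq at 2 × 250 and filtered by CDR length. The clones had been stained with 10% biotinylated, detergent-solubilized Sf9 membrane reagent for 1 hour at 4 °C and sorted by FACS into low and high (top ~1%) gates on anti-HA and streptavidin fluorescence. Polyreactivity labels come from the gate of origin.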
For “QVQLVESGGGLVQAGGSLRLSCAASGSIFPFNAMGWYRQAPGKERELVAAITRSGGSTYYADSVKGRFTISRDNAKNTVYLQMNSLKPEDTAVYYCANDPEWPLPDFYYWGQGTQVTVSS”, the “polyreactivity (PSR sort gate)” value was “low polyreactivity”. With “QVQLVESGGGLVQAGGSLRLSCAASGSIFPGNAMGWYRQAPGKERELVAAIDFSGGSTYYADSVKGRFTISRDNAKNTVYLQMNSLKPEDTAVYYCAASVYPYYGYGYWGQGTQVTVSS” the “polyreactivity (PSR sort gate)” value was “low polyreactivity”. In the case of “QVQLVESGGGLVQAGGSLRLSCAASGSIFPGNAMGWYRQAPGKERELVASINWSGGSTYYADSVKGRFTISRDNANNTVYLQMNSLKPEDTAVYYCNADPGYYDYDYWGQGTQVTVSS”, the “polyreactivity (PSR sort gate)” value is reported as “low polyreactivity”. For “QVQLVESGGGLVQAGGSLRLSCAASGSIFPGYAMGWYRPAPGKERELVAAITDSGVSTYYADSVKGRFTISRDNAKNTVYLQMNSLKPEDTAVYYCARDNWQWYPSTWYDYWGQGTQVTVSS”, the “polyreactivity (PSR sort gate)” value was “high polyreactivity”. With “QVQLVESGGGLVQAGGSLRLSCAASGSIFPGYPMGWYRQAPGKERELVAAISRSGGITYYADSVKGRFTISRDNAKNTVYLQMNSLKPEDTAVYYCAKTLPSNGHYDYWGQGTQVTVSS” the “polyreactivity (PSR sort gate)” value was “low polyreactivity”. In the case of “QVQLVESGGGLVQAGGSLRLSCAASGSIFPGYTMGWYRQAPGKERELVAAISWSDGSTYYADSVKGRFTISRDNAKNTVYLQMNSLKPDDTAVYYCNRDYRGPYYYWGQGTQVTVSS”, the “polyreactivity (PSR sort gate)” value is reported as “high polyreactivity”. In the case of “QVQLVESGGGLVQAGGSLRLSCAASGSIFPHNAMGWYRPAPGKERELVAAISSGGSTNYADSVKGRFTISRDNANNTVYLQLNSLKPEDTAVYYCAKSIDGWYWRRRRYDYWGQGTQVTVSS”, the “polyreactivity (PSR sort gate)” value is reported as “low polyreactivity”. In the case of “QVQLVESGGGLVQAGGSLRLSCAASGSIFPHNAMGWYRQAPGKERELVAAITTIGGSTYYADSVKGRFTISRDNAKNTVYLQRNSLKPEDTAVYYCAADCATVLGFYTYDYWGQGTQVTVSS”, the “polyreactivity (PSR sort gate)” value is reported as “low polyreactivity”. In the case of “QVQLVESGGGLVQAGGSLRLSCAASGSIFPHYAMGWSRQAPGKERELVSAISSGGRTYYADSVKGRFTISRDNAKNTVYLQMNSLKPEDTAVYYCAARRIARKGYGYWGQGTQVTVSS”, the “polyreactivity (PSR sort gate)” value is reported as “high polyreactivity”. With “QVQLVESGGGLVQAGGSLRLSCAASGSIFPHYAMGWYRQSPGKETELVAAISRSGTSTYYADSVKGRFTISRDNAKNTVYLQMNSLKPEDTAVYYCAALSNNGVRYYYWGQGTQVTVSS” the “polyreactivity (PSR sort gate)” value was “high polyreactivity”. With “QVQLVESGGGLVQAGGSLRLSCAASGSIFPKYAMGWYRQAPGKERELVAAISRGGGSTYYADSVKGRFTISRDNAKYTVYLQMNSLKPEDTAVYYCAAQYYSLQWEYYYWGQGTQVTVSS” the “polyreactivity (PSR sort gate)” value was “high polyreactivity”. For “QVQLVESGGGLVQAGGSLRLSCAASGSIFPLYAMGWYRQAPGKERELVADITVSGGSTYNADSVKGRFTISRDNAKNTVYLQMNSLKPEDTAVYYCNADDRSPFPDYWWYPYDYDYWGQGTQVTVSS”, the “polyreactivity (PSR sort gate)” value was “low polyreactivity”. With “QVQLVESGGGLVQAGGSLRLSCAASGSIFPLYDMGWYRPAPGKERELVAGISSGGSTNYADSVKGRFTISRDNAKNTVYLQMNSLKPEDTAVYYCAATGSSRYGYWGQGTQVTVSS” the “polyreactivity (PSR sort gate)” value was “low polyreactivity”. For “QVQLVESGGGLVQAGGSLRLSCAASGSIFPNNDMGWYRQAPGKERELVAAITTRGTSTYYADSVKGRFTISRDNAKNTVYLQMNSLKPEDTAVYYCAVGRRGDSAGGVAYYYWGQGTQVTVSS”, the “polyreactivity (PSR sort gate)” value was “low polyreactivity”. With “QVQLVESGGGLVQAGGSLRLSCAASGSIFPPNAMAWYRQAPGKEREFVAAITESGGSTRYADSVKGRFTISRDNAKNTVYLQMNSLKPEDTAVYYCAARSYRYSTHGTYRYYYWGQGTQVTVSS” the “polyreactivity (PSR sort gate)” value was “high polyreactivity”. For “QVQLVESGGGLVQAGGSLRLSCAASGSIFPPNAMGWYRQAPGKERELVAAISRRGGSTYYADSVKGRFTISRDNAKNTVYLQMNSLKPEDTAVYYCAARGGQMEYWGQGTQVTVSS”, the “polyreactivity (PSR sort gate)” value was “high polyreactivity”. With “QVQLVESGGGLVQAGGSLRLSCAASGSIFPPYAIGSYRQAPGKERELVATITIRGGSTYYADSVKGRFTISRDNAKNTVYLQMNSLKPEDTAVYYCAADYTKYYRRYYYWGQGTQVTVSS” the “polyreactivity (PSR sort gate)” value was “high polyreactivity”. With “QVQLVESGGGLVQAGGSLRLSCAASGSIFPQYAIGWYRQAPGKERELVAAITRSGGGTHYADSVKGRFTISRDNAKNTVYLQMNSLKPEDTAVYYCAKAGYRSEFEYWGQGTQVTVSS” the “polyreactivity (PSR sort gate)” value was “low polyreactivity”. In the case of “QVQLVESGGGLVQAGGSLRLSCAASGSIFPRNAMGWYRQAPGKERELVAAIRKSGGSTYYADSVKGRFTISRDNAKNTVYLQMNSLKPEDTAVYYCAKTYSVSSWQSPIYNYWGQGTQVTVSS”, the “polyreactivity (PSR sort gate)” value is reported as “low polyreactivity”. For “QVQLVESGGGLVQAGGSLRLSCAASGSIFPRNAMGWYRQAPGKERELVAAITTTGGITHYADSVKGRFTISRDNAKNTVYLLMNSLKPEDTAVYYCNASYEYNAGRVETEYDYWGQGTKVTVSS”, the “polyreactivity (PSR sort gate)” value was “low polyreactivity”. In the case of “QVQLVESGGGLVQAGGSLRLSCAASGSIFPRNAMGWYRQAPGKERELVAAITTTGGITHYADSVKGRFTISRDNAKNTVYLQMNSLKPEDTAVYYCNASYEYNAGRVETEYDYWGQGTQVTVSS”, the “polyreactivity (PSR sort gate)” value is reported as “low polyreactivity”. In the case of “QVQLVESGGGLVQAGGSLRLSCAASGSIFPSNAMGWYRQAPGKERELVAAINRDGITNYADSVKGRFTISRDNAKNTVYLQMNSLKPEDTAVYYCNAYNYDFYASFWYEVDYWGLGTQVTVSS”, the “polyreactivity (PSR sort gate)” value is reported as “low polyreactivity”. With “QVQLVESGGGLVQAGGSLRLSCAASGSIFPSNAMGWYRQAPGKERELVATIGRGGTTNYADSVKGRFTISRDNAKNTVYLQMNSLKPEDTAVYYCNAERIWRYKYGYDYWGQGTQVTVSS” the “polyreactivity (PSR sort gate)” value was “high polyreactivity”. For “QVQLVESGGGLVQAGGSLRLSCAASGSIFPSYAMGWYRQAPGKERELVAAISVSGGSTYYADSVKGRFTISRDTAKNTVYLQMNSLKPEDTAVYYCAAQHGYPRYYYWGQGTQVTVSS”, the “polyreactivity (PSR sort gate)” value was “high polyreactivity”. For “QVQLVESGGGLVQAGGSLRLSCAASGSIFPTNAMGWYRQAPGKERELVAAITGNGGRTYYADSVKGRFTISRDNAKNTVYLQMNSLKPEDTAVYYCAALTYASNRYGYWGQGTQVTVSS”, the “polyreactivity (PSR sort gate)” value was “high polyreactivity”. In the case of “QVQLVESGGGLVQAGGSLRLSCAASGSIFPVNTMGWYRQAPGKERELVAAITQRGGRTYYADSVKGRFTISRDNAKNTVYLQMNSLKPEDTAVYYCNRDLGAGGYDYWGQGTQVTVSS”, the “polyreactivity (PSR sort gate)” value is reported as “low polyreactivity”. In the case of “QVQLVESGGGLVQAGGSLRLSCAASGSIFPVYAMGWYRQAPGKDRELDATITDGGGDTYYADSVMGRFTISRDNAKNTVYLQMNSLKPEDTAVLYCAARSIPEWSAYWYDYWGQGTQVTVSS”, the “polyreactivity (PSR sort gate)” value is reported as “low polyreactivity”. With “QVQLVESGGGLVQAGGSLRLSCAASGSIFPVYAMGWYRQAPGKERELVAAISLRAGNTYYADSVKGRFTISRDNAKNTVYLQMNSLKPEDTAVYYCAVEWFRSTTIFDYWGQGTQVTVSS” the “polyreactivity (PSR sort gate)” value was “high polyreactivity”. With “QVQLVESGGGLVQAGGSLRLSCAASGSIFPWNTMGWYRQAPGKERELVARISTSGASTYYADSVKGRFTISRDNAKNTVYLQMNSLKPEDTAVYYCAARKRPFYKYDYWGQGTQVTVSS” the “polyreactivity (PSR sort gate)” value was “high polyreactivity”. For “QVQLVESGGGLVQAGGSLRLSCAASGSIFPWYAMGWYRQAPGKERELVAAITISGGSTHYADSVKGRFTISRDNAKNTVYLQMNSLKPEDTAVYYCATPRYPSYEYWGQGTQVTVSS”, the “polyreactivity (PSR sort gate)” value was “low polyreactivity”. With “QVQLVESGGGLVQAGGSLRLSCAASGSIFPYAMGWYRQAPGKERELVAAITSGVRTNYADSVKGRFTISRDNAKNTVYLQIYSLKPEDTAVYYCAARYFPHYYSKYDYWGQGTQVTVSS” the “polyreactivity (PSR sort gate)” value was “low polyreactivity”. In the case of “QVQLVESGGGLVQAGGSLRLSCAASGSIFPYNAMGWYRQAPGKERELVAAITSSGGRTYYADSVKGRFTISRDNAKNTVYLQMNSLKPEDTAVYYCAVEANYHTYWLYYWGQGTQVTVSS”, the “polyreactivity (PSR sort gate)” value is reported as “high polyreactivity”. For “QVQLVESGGGLVQAGGSLRLSCAASGSIFPYNAMGWYRQAPGKERQLVARISWSGGSTYYADSVKGRFTISRDNAKNTVYLQMNSLKPEDTAVYYCAATIIFDAQYRFYYWGQGTQVTVSS”, the “polyreactivity (PSR sort gate)” value was “low polyreactivity”. In the case of “QVQLVESGGGLVQAGGSLRLSCAASGSIFPYNAMGWYRQPPGKERELVATISSGGSTNYADSVKGRFTISRDNAKNTVYLQMNSLKPEDTAVFYCAADVIVFYYAPNYWGDIEYGYWGQGTQVTVSS”, the “polyreactivity (PSR sort gate)” value is reported as “low polyreactivity”. With “QVQLVESGGGLVQAGGSLRLSCAASGSIFPYNVMGWYRQAPGKERELVAAISTRGGRTYYADSVKGRFTISRDNAKNTVYLQMNSLKPEDTAVYYCATAGGPYSASGYYWGQGTQVTVSS” the “polyreactivity (PSR sort gate)” value was “high polyreactivity”. With “QVQLVESGGGLVQAGGSLRLSCAASGSIFPYYAMGWYRPAPGKERELVASINQSDGTTYYADSVKGRFTISRDNAKNTVYLQMNRLKPEDTAVSYCAADTTLQDFIRYRPMGSYDSWGQGTQVTVSS” the “polyreactivity (PSR sort gate)” value was “low polyreactivity”. With “QVQLVESGGGLVQAGGSLRLSCAASGSIFPYYAMGWYRQAPGKERELVARITWRSTSTYADSVKGRFTISRDNAKNTVYLQMNSLKPEDTAVYYCAVRLLSTYIIEYDHWGQGTQVTVSS” the “polyreactivity (PSR sort gate)” value was “low polyreactivity”. In the case of “QVQLVESGGGLVQAGGSLRLSCAASGSIFPYYTMGGYRQAPGKERELVAVISSGGSTNYAVSVKGRFTISRDNAKNTVYLQMNSLKPEDTAVYYCNARRYWLRYDYWGLGTQVTVSS”, the “polyreactivity (PSR sort gate)” value is reported as “low polyreactivity”. With “QVQLVESGGGLVQAGGSLRLSCAASGSIFPYYTMGWYRQAPGKERELVAAISGSGTSTYYADSVKGRFTISRDNAKNTVYLQMISLKPEDTAVYYCAKRFRYGYVNYYYWGQGTQVTVSS” the “polyreactivity (PSR sort gate)” value was “low polyreactivity”. In the case of “QVQLVESGGGLVQAGGSLRLSCAASGSIFQGYALGWYRQAPGKERELVAAITASGGSTYYADSVKGRFTISRDNAKNTVYLQMNSLKPEDTAVYYCATDSYWRQDLYRYEYWGQGTQVTVSS”, the “polyreactivity (PSR sort gate)” value is reported as “high polyreactivity”. In the case of “QVQLVESGGGLVQAGGSLRLSCAASGSIFQGYAMGWYRQAPGKERELVAGITSSGGSTHYADSVKGRFTISRDNAKNTVYLQMNSLKPEDTAVYDYWGQGTQVTVSS”, the “polyreactivity (PSR sort gate)” value is reported as “low polyreactivity”. With “QVQLVESGGGLVQAGGSLRLSCAASGSIFQHYAMGLYRQAPGKERELVAAISYDTTSTYYADSVKGRFTISRDNAKNTVYLQMNSLKPEDTAVYYCNTYPEVYGPFQYDYWGQGTQVTVSS” the “polyreactivity (PSR sort gate)” value was “low polyreactivity”. For “QVQLVESGGGLVQAGGSLRLSCAASGSIFQINAMGWYRPAPGKERECVASITYSGGSTYYADSVKGRFTISRDNAKNTVYLQMNSLKPEDTAVYYCAAESYWGYDYWGQGTQVTVSS”, the “polyreactivity (PSR sort gate)” value was “high polyreactivity”.

From the nanobody polyreactivity screen of Harvey et al. (2022)
